Three molecules from paper PMC8631942 (2021) can be followed below.

Substitutions are numbered along the chain they refer to.

To fix the notation:
B1: SNAP-SHP1-cSH2 (domain or fragment)
chain: WYHGHMSGGQAETLLQAKGEPWTFLVRESLSQPGDFVLSVLSDQPKAGPGSPLRVTHIKVMCEGGRYTVGGLETFDSLTDLVEHFKKTGIEEASGAFVYLRQPY
B2: His10-BTLA^ICD BTLA^FFFY, pre-phosphorylated (domain or fragment)
chain: DTAGREINLVDAHLKSEQTEASTRQNSQVLLSETGIFDNDPDLCFRMQEGSEVFSNPCLEENKPGIVFASLNHSVIGPNSRLARNVKEAPTEYASICVRS
modifications: pre-phosphorylated with Fyn; lone tyrosine (Y282) in the ITSM
B3: His10-BTLA^ICD BTLA^FFYF, pre-phosphorylated (domain or fragment)
chain: B2 chain with F68Y, Y93F
modifications: pre-phosphorylated with Fyn; lone tyrosine (Y257) in the ITIM

The target of assay [1] is B3. Put plainly: SPR.
For assay [2], the target named is SNAP-SHP2-cSH2. Put plainly: SPR. (In general: Surface plasmon resonance follows binding to a sensor surface in real time, without labels.)

Usually Kd stands for the constant that tells how readily two partners part at equilibrium. A high value points to a looser complex. On to B1, for which, in assay [1], the Kd was found to be 1.8 µM. The molecule B2 registered a dissociation constant Kd in assay [2] of 1.1 µM. The same measure, in the same setting: the value for B3 was 1.1 µM.
